Assay results: the supplement of paper PMC9112550, “Optimization of the antimicrobial peptide Bac7 by deep mutational scanning” (BMC Biology, 2022)

Tested on: Escherichia coli TOP10
Assay: shrunken log2 fold change of peptide-encoding DNA abundance (4.5 h post-induction vs induction); higher = less antimicrobial activity (less host growth inhibition)
Details: time post-induction: 4.5 h; library: site-saturation at positions 5, 18, 19, 20
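Note: peptides expressed intracellularly from a pBAD plasmid library in pooled LB shake-flask culture, induced with 0.3% L-arabinose, DNA abundance read by NGS, three biological replicates, DESeq2 with apeglm shrinkage.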

Sequence	shrunken log2 fold change
RRIRVRPPRLPRPRPRPTVSPRP	-0.131
RRIRVRPPRLPRPRPRPTTSPRP	0.097
RRIRIRPPRLPRPRPRPHIIPRP	-0.614
RRIRNRPPRLPRPRPRPFNVPRP	0.109
RRIRARPPRLPRPRPRPAWLPRP	0.597
RRIRCRPPRLPRPRPRPNILPRP	-0.701
RRIRFRPPRLPRPRPRPLMTPRP	0.189
RRIRWRPPRLPRPRPRPCSCPRP	0.0968
RRIRLRPPRLPRPRPRPEFSPRP	-0.013
RRIRGRPPRLPRPRPRPSFLPRP	-0.118
RRIRTRPPRLPRPRPRPRTKPRP	0.74
RRIRARPPRLPRPRPRPDRHPRP	0.0379
RRIRVRPPRLPRPRPRPNDDPRP	-0.299
RRIRRRPPRLPRPRPRPTAYPRP	0.676
RRIRLRPPRLPRPRPRPQCIPRP	-0.0123
RRIRWRPPRLPRPRPRPKHAPRP	0.222
RRIRPRPPRLPRPRPRPECGPRP	0.525
RRIRFRPPRLPRPRPRPQWHPRP	-0.461
RRIRERPPRLPRPRPRPMFIPRP	-0.256
RRIRERPPRLPRPRPRPQTVPRP	0.136
RRIRDRPPRLPRPRPRPIQGPRP	0.00911
RRIRQRPPRLPRPRPRPCFPPRP	0.121

Sequence	shrunken log2 fold change
RRIRQRPPRLPRPRPRPGLIPRP	-0.118
RRIRHRPPRLPRPRPRPGTSPRP	-0.0565
RRIRARPPRLPRPRPRPLFWPRP	0.678
RRIRGRPPRLPRPRPRPSSDPRP	0.439
RRIRCRPPRLPRPRPRPIAEPRP	0.247
RRIRYRPPRLPRPRPRPIVRPRP	-0.0319
RRIRMRPPRLPRPRPRPNTGPRP	0.151
RRIRKRPPRLPRPRPRPKEFPRP	0.232
RRIRERPPRLPRPRPRPFVKPRP	-0.0102
RRIRPRPPRLPRPRPRPIRFPRP	-0.119
RRIRFRPPRLPRPRPRPDGGPRP	-0.537
RRIRARPPRLPRPRPRPRPRPRP	1.99
RRIRARPPRLPRPRPRPEWYPRP	0.137
RRIRDRPPRLPRPRPRPPQEPRP	0.559
RRIRYRPPRLPRPRPRPVDCPRP	-0.103
RRIRHRPPRLPRPRPRPSGGPRP	-0.0256
RRIRCRPPRLPRPRPRPSNCPRP	-0.0679
RRIRTRPPRLPRPRPRPHGCPRP	0.14
RRIRMRPPRLPRPRPRPTWPPRP	0.837
RRIRERPPRLPRPRPRPQNLPRP	-0.375
RRIRLRPPRLPRPRPRPRQEPRP	0.0259
RRIRNRPPRLPRPRPRPPQAPRP	0.0708

Sequence	shrunken log2 fold change
RRIRQRPPRLPRPRPRPEQAPRP	0.378
RRIRYRPPRLPRPRPRPLTEPRP	-0.00518
RRIRPRPPRLPRPRPRPENEPRP	0.0949
RRIRTRPPRLPRPRPRPDRGPRP	-0.252
RRIRARPPRLPRPRPRPVHRPRP	-0.0852
RRIRFRPPRLPRPRPRPARHPRP	0.262
RRIRKRPPRLPRPRPRPQQKPRP	0.206
RRIRKRPPRLPRPRPRPAYPPRP	-0.0401
RRIRTRPPRLPRPRPRPKWRPRP	0.394
RRIRSRPPRLPRPRPRPNLPPRP	0.247
RRIRLRPPRLPRPRPRPHRTPRP	-0.0946
RRIRNRPPRLPRPRPRPTWTPRP	0.201
RRIRARPPRLPRPRPRPACGPRP	0.582
RRIRWRPPRLPRPRPRPKELPRP	0.501
RRIRFRPPRLPRPRPRPIYDPRP	-0.626
RRIRKRPPRLPRPRPRPQRKPRP	0.71
RRIRGRPPRLPRPRPRPEQCPRP	0.0643
RRIRSRPPRLPRPRPRPIPDPRP	-0.0495
RRIRNRPPRLPRPRPRPTMIPRP	-0.387
RRIRKRPPRLPRPRPRPKVEPRP	0.0183
RRIRLRPPRLPRPRPRPPSFPRP	-0.244
RRIRQRPPRLPRPRPRPINGPRP	-0.000925

Sequence	shrunken log2 fold change
RRIRIRPPRLPRPRPRPFIFPRP	-0.696
RRIRARPPRLPRPRPRPHRLPRP	-0.0138
RRIRYRPPRLPRPRPRPNKIPRP	-0.995
RRIRRRPPRLPRPRPRPRNLPRP	-0.0397
RRIRCRPPRLPRPRPRPRCQPRP	-0.146
RRIRHRPPRLPRPRPRPRQHPRP	0.0285
RRIRVRPPRLPRPRPRPVLDPRP	-0.145
RRIRFRPPRLPRPRPRPNESPRP	0.0698
RRIRPRPPRLPRPRPRPNIHPRP	-0.579
RRIRERPPRLPRPRPRPHTKPRP	0.0349
RRIRTRPPRLPRPRPRPGFLPRP	0.122
RRIRIRPPRLPRPRPRPYNGPRP	-0.0564
RRIRNRPPRLPRPRPRPLLCPRP	0.0225
RRIRPRPPRLPRPRPRPKSTPRP	-0.244
RRIRKRPPRLPRPRPRPVTIPRP	0.0361
RRIRGRPPRLPRPRPRPPNYPRP	0.299
RRIRQRPPRLPRPRPRPNMTPRP	-0.196
RRIRSRPPRLPRPRPRPLRPPRP	0.953
RRIRIRPPRLPRPRPRPCYEPRP	-0.303
RRIRWRPPRLPRPRPRPEWLPRP	0.803
RRIRYRPPRLPRPRPRPIMQPRP	-0.107
RRIRSRPPRLPRPRPRPYSKPRP	-0.994

Sequence	shrunken log2 fold change
RRIRFRPPRLPRPRPRPDDEPRP	0.066
RRIRARPPRLPRPRPRPTIVPRP	-0.152
RRIRPRPPRLPRPRPRPPHDPRP	0.572
RRIRNRPPRLPRPRPRPIANPRP	0.000407
RRIRWRPPRLPRPRPRPKDEPRP	0.0784
RRIRNRPPRLPRPRPRPHNNPRP	-1.05
RRIRHRPPRLPRPRPRPNMYPRP	-0.963
RRIRNRPPRLPRPRPRPISHPRP	-0.963
RRIRMRPPRLPRPRPRPCDFPRP	-0.121
RRIRHRPPRLPRPRPRPVLAPRP	0.126
RRIRCRPPRLPRPRPRPVSRPRP	0.344
RRIRERPPRLPRPRPRPYEWPRP	-0.00963
RRIRFRPPRLPRPRPRPTSLPRP	-1.17
RRIRQRPPRLPRPRPRPLVPPRP	0.253
RRIRFRPPRLPRPRPRPCDHPRP	-0.0275
RRIRYRPPRLPRPRPRPKTMPRP	-0.614
RRIRERPPRLPRPRPRPLLPPRP	-0.119
RRIRFRPPRLPRPRPRPHRKPRP	0.306
RRIRIRPPRLPRPRPRPLLNPRP	-0.731
RRIRLRPPRLPRPRPRPGEYPRP	-0.0271
RRIRSRPPRLPRPRPRPFTAPRP	-0.492
